Paper PMC9399094

What was measured:
[1] = biological target: S.c. Mcm2-7 complex with S6- and 3xFlag-tagged Mcm3, fluorescently labeled (S. cerevisiae) (UniProt P29469); assay: single-molecule photobleaching step counting (optical tweezers with confocal microscopy); LD650-MCM on nucleosome-free λ_(ARS1) DNA with unlabeled ORC, Cdc6, Cdt1; oxygen scavenging system omitted; labeling efficiency of MCM ~60%; two hexamers to a double hexamer on DNA
[2] = system: ORC (Orc1-6);Cdc6 (Saccharomyces cerevisiae (overexpressed in strain OY001);Saccharomyces cerevisiae); assay: single-molecule fluorescence, optical tweezers; details: biotinylated ends, H2A K120C, Single-molecule optical tweezers with confocal fluorescence, ATP present, 2 nM ORC, 5 nM Cdc6, 10 nM MCM, high-salt wash 0.5 M NaCl, buffer, pH and temperature …
[3] = biological target: S.c. nucleosome: recombinant S. cerevisiae histone octamer (H2A K120C, fluorescently labeled) assembled on λ_(ARS1) DNA (S. cerevisiae) (UniProt P04911); assay: single-molecule fluorescence colocalisation (dual-trap optical tweezers with confocal microscopy); nucleosomes sparsely assembled on λ_(ARS1) DNA tethered between streptavidin beads; 2 nM Cy3- or LD650-ORC and 5 nM Cdc6 in solution; 25 mM Tris-OAc pH 7.5, 50 mM potassium glutamate, 10 mM Mg(OAc)2, 2.5 mM ATP; room temperature
[4] = system: ORC (Orc1-6);MCM (Mcm2-7);Cdc6;Cdt1 (Saccharomyces cerevisiae (overexpressed in strain OY001);Saccharomyces cerevisiae (overexpressed in strain OY001);Saccharomyces cerevisiae;Saccharomyces cerevisiae); assay: single-molecule fluorescence, optical tweezers; details: Single-molecule optical tweezers with confocal fluorescence, ATP present, 2 nM ORC, 5 nM Cdc6, 10 nM MCM, high-salt wash 0.5 M NaCl, buffer, pH and temperature …

## S.c. Mcm2-7 complex with S6- and 3xFlag-tagged Mcm3, fluorescently labeled, P29469 1-868; P24279 1-971; P30665 1-933; P29496 1-775; P53091 1-1017; P38132 1-845
[1]
  fraction of MCM with two-step photobleaching: 36%
  stoichiometry N: 2

## S.c. nucleosomes on λARS1 DNA (all positions)
[2]; S. cerevisiae octamer
  binding signal (% of nucleosomes with stably bound ORC): > 90

## S.c. origin recognition complex (Orc1-6) with S6-3xFlag-Orc1, fluorescently labeled (from UniProt P54784 1-914; P32833 1-620; P54790 1-616; P54791 1-529; P50874 1-479; P38826 1-435)
[3]
  fraction of nucleosomes with a stably bound ORC at 2 nM ORC: > 90%

## X.l. nucleosomes on λARS1 DNA (all positions)
[2]; Xenopus laevis octamer
  binding signal (% of nucleosomes with stably bound ORC): > 90

## λARS1 DNA, ARS1 site
[4]; 0.5 M NaCl wash, biotinylated ends (biotin-11-dUTP, biotin-14-dCTP fill-in), scale: % of MCM loaded
  binding signal: 62

## λARS1 DNA, non-ARS1 positions
[4]; 10 nM MCM, 5 nM Cdc6, biotinylated ends, scale: % of stably bound MCM located at non-ARS1 positions
  binding signal: 86
[4]; 0.5 M NaCl wash, biotinylated ends, scale: % of MCM loaded
  binding signal: 25
